B1: Eterna 6122145 (Exclusion NG 2) (ssRNA)
RNA: AAAUUUAACGAAGGAUAUGCUGACAUGAGGAUCACCCAUGUGUGCUUUGUGUUGCUGAAAUGGGAGCAGAAGGUCGUAUACAUA
B2: Eterna 6045632 (Brourd's mod of Exclusion 4) (ssRNA)
RNA: CGGGCUGCUGUGAGGAUAUGCCUGUGGGUGCGUGGGUAGAAGGCACAUGAGGAUCACCCAUGUCCUGCAGCUCG
B3: Eterna 6069320 (Exclusion 4) (ssRNA)
RNA: GGGUUGUGAGGAUAUUAGUUGUACGUCAAUAGACGUAUGGGUGAGAAGGCACAUGAGGAUCACCCAUGUUCCUG
B4: Eterna 6387857 (Small Loop Same State NG 3) (ssRNA)
RNA: AAUCUUUUUAUGGGAUUACAAUAUGAGGAUAUCAUUCAUUUAUACAUGAGGAUCACCCAUGUUACUGAGAAGGCAUAUAUAAUA
B5: Eterna 5989868 (Exclusion 3) (ssRNA)
RNA: GUAUCACGAGGAUAUACAUGAGGAUCACCCAUGUAGAAGCCAUGUGGUGCUCAAGUAUGUAGAAGGCGUGCUCC
B6: Eterna 13730 (Sensor v3, turn-off variant 1) (ssRNA)
RNA: CCGAGGAAGCGGUCCUAUGACAUGAGGAUCACCCAUGUACCUCGCUACGAGCUUUUUGCUCGUCUUAUAAUUCUCGG
B7: Eterna 7646225 (Same State - Tryptophan A) (ssRNA)
RNA: AAUAACAUGAGGAUCACCCAUGUAAGUAAACGAGGACCGGUACGGCCGCCACUCGAAUAAAUAAAGUACCGGUAAGAUCCAUAGA
B8: Eterna 6146814 (Same State NG 1) (ssRNA)
RNA: GGUGUCGCAUGAGGAUAUGGUCAGCUUUGCUGACCAGAAGGCAUGUCAAUAGACAUGAGGAUCACCCAUGUAGUAAAGACACCA
B9: Eterna 7691982 (Same State - Arginine B) (ssRNA)
RNA: UGACUGGACUGAAGGAGCGAGCGAGACAAAGUCUCGAAAAUUCAGUGAUGUUGAAAUAUAACUCAGGUAGGUCGCAGUCUAGUCU
B10: Eterna 15090 (Exclusion 6) (ssRNA)
RNA: AAAUGGGCGUAGGAUAUGAGAUGGUCUAGCAGCUCAGAAGGACGCACAUGAGGAUCACCCAUGUGAUCGGACUA
B11: Eterna 7740449 (Exclusion - Theophylline A) (ssRNA)
RNA: AUGUUUUAUAAACUCAUGGUUUCGACAGAUACCAGCUUCGAGAGGAGCCCUUGGCAGCUGCAUGAGUGAUGUUCAUGUACGAAGA
B12: Eterna 7755342 (Exclusion - FMN A) (ssRNA)
RNA: AAGUGUCAUUAGACACACCGAUGUAUAAACUAGGAUAUGCUGAUAAGCAGAAGGAGUGAUGUUCCUUUCAUCAUCGGAAUUAAAU
B13: Eterna 8 (K4-8bp_control) (ssRNA)
RNA: UUUGCAGGGCAGUGAUGUUGCCCUGCUUU
B14: Eterna 6071251 (Exclusion 3) (ssRNA)
RNA: GCACUGACAGGAUAUACAUGAGGAUCACCCAUGUGACCCUUACAGUACUCGCGUACUGGUAGAAGGGUCUGUGC
B15: Eterna 7763203 (Exclusion - FMN B) (ssRNA)
RNA: AAAUAACAGGCAGGAUAUGCUUAGUAAUAAGGCCAUAUAUACGUAUAGAGUGAUGUUUUGUACAAAGCAGAAGGGCUAAAUCCAU
B16: Eterna 6437027 (Inverted Exclusion NG 3) (ssRNA)
RNA: AUACAUGAGGAUCACCCAUGUUACUGGGUCUAUAUAGAACGUAGAAGGAUGUUUAUACACAUAACAUAGGAUAUACAAUAUUGU
B17: Eterna 6093766 (Exclusion NG 2) (ssRNA)
RNA: UGUCGGAGCAGAGGAUAUAUACAUGAGGAUCACCCAUGUAAAUGAAUGAGCUGGAAACAGCAAGUAUAGAAGGCUGCUCCGACA
B18: Eterna 6382764 (Same State NG 3) (ssRNA)
RNA: GGACGUCACAUUAACAUGAGGAUCACCCAUGUGAAAACACAUGAGGAUAUGGAUCCUAAUUGGAUCCAGAAGGCAUGGACGUCC
B19: Eterna 1618 (Same State - Theophylline A) (ssRNA)
RNA: GAUUGAGUGAUGUUCAAUUAGUAUCUAGAUACCAGAAUGUCUACCUUCCCUUGGCAGCUACUGACGGUGAUCAUUUCGCGCGCAG
B20: Eterna 6075609 (Exclusion 3) (ssRNA)
RNA: CUGAGUUAAGGAUAUACAUGAGGAUCACCCAUGUAAAGUAGCUUGCGUACAGGCAGAUGUAGAAGGUAAUUCGG
B21: Eterna 6461493 (Inverted Same State NG 1) (ssRNA)
RNA: GUGCUUUGGGAGAAGGCCGUAUGCAAAGCAUACGGAGGAUAUUCAUACCGGAAACGGACAUGAGGAUCACCCAUGUGGCACAAA
B22: Eterna 7689684 (Same State - Theophylline A) (ssRNA)
RNA: UGGAGUUGACGAAAAGUCAACUCCUGAGAUACCAGUGACGAAAGUCACCCUUGGCAGCUCACUGCCAGUGAUGUUGGAAAUAAAA
B23: Eterna 6458058 (Inverted Same State NG 2) (ssRNA)
RNA: AAUGGGCAGCAGAAGGCAUGUCUACGGACAUGAGGAUCACCCAUGUAGUAAAGCCGAAAGGCGCAUGAGGAUAUGCUGCCCUAA
B24: Eterna 7717543 (Exclusion - Theophylline B) (ssRNA)
RNA: CCAUUCAUUUACGAUACCAGUCUAAUAUAUUUAAUCAAAACCCUCGCCGAGUGAUGUUCGGACCCUUGGCAGCGUCUGCGACAGG
B25: Eterna 6454073 (Inverted Small Loop Exclusion NG 3) (ssRNA)
RNA: CUGUGACGGUGCGCAAGUGGACGUAGAAGGGUCACAUGAGGAUCACCCAUGUGGGCCUGCUAGUGACAGGAUAUACGUUCGUGC
B26: Eterna 7750603 (Exclusion - Arginine A) (ssRNA)
RNA: GGCCGCAAGGCGAGCGCUCCCACUCCGGAAGGAGCGCCCGUAAGGGCAGGUAGGUCGCCGGAGUGAUGUUCCGGUGGAGGGCUCG
B27: Eterna 5958897 (Exclusion NG 2) (ssRNA)
RNA: AGCUGUGGCCGAGGAUAUCUAUCCCAAAUAACCGAAAUAUAAUCGGACAUGAGGAUCACCCAUGUAGAGAAGGCGGUCUCAGCA
B28: Eterna 13277 (Sensor for hsa-mir-208a) (ssRNA)
RNA: AGUUGUGGGAAACUAUAGCAGACGCUCGUACAUGAGGAUCACCCAUGUCUUGUAGGAGCUGUUUGCUCGUUUUAUGG
B29: Eterna 1184 (Exclusion - Theophylline B) (ssRNA)
RNA: AACACCCGCUAUGAUACCAGUGAAGUGAUGUUUUACUCCGGGCGUAAGACAAAGGUCAGCCACCCUUGGCAGCAUAUCCGCGUAU
B30: Eterna 7740311 (Same State - Theophylline A) (ssRNA)
RNA: AAAAUAAGCCAGUGAUGUUGGUAUACAGAUACCAGCGACGAAAGUCGCCCUUGGCAGCUGUGGACGUACAAAAUAAGUACGUCCU
B31: Eterna 6446347 (Same State NG 2) (ssRNA)
RNA: GGGUACAUCGGAGGAUAUCAUGUAAAUACAUGAGGAUCACCCAUGUCGGUGGAGACAUCGGAGAUUGAGAAGGCCGAUGUACCG
B32: Eterna 7744734 (Exclusion - Tryptophan A) (ssRNA)
RNA: CGUGAAUGUCGUCAGUCAUCGGUCCAUGCACGAGGACCGGUACGGCCGCCACUCGAGCGUGGCAGUGAUGUUGCCAGCGCACUAA
B33: Eterna 6455078 (Same State NG 2) (ssRNA)
RNA: UGGUACUAGGGAGGAUAUGGGAAGAUACAUGAGGAUCACCCAUGUUUAAGAAUGCCGAGAGGGAACUAGAAGGCCCUAGUACCU
B34: Eterna 4 (OligoAControl) (ssRNA)
RNA: UUUCUUAUUCUUUAUUGUGGGGUUUU
B35: Eterna 8603 (Same State 1) (ssRNA)
RNA: AUAAAACAUGAGGAUCACCCAUGUCAACAAAGUCGAGGAUAUGGGCAAAUAAAAUAAGAACCAGAAGGCGUAUAAU
B36: Eterna 6461246 (Same State NG 1) (ssRNA)
RNA: GUUUUCGCAUGAGGAUAUGCUCGCAUUUUAAGAGCAGAAGGUAUGUCUUUAGACAUGAGGAUCACCCAUGUAUUUAUCAUUGAA
B37: Eterna 10695 (Exclusion 1) (ssRNA)
RNA: AAUUCACAUGAGGAUCACCCAUGUCAGGAUAUGGUGACGCGGGUUUCGGUGCGUGUUGCCAGAAGGGACGGCUG
B38: Eterna 6402815 (Same State NG 2) (ssRNA)
RNA: ACCUCGUACACAGGAUAUGAUUACUUGCAGCCUGCGUUGACAUGAGGAUCACCCAUGUGGACUGAUCAGAAGGGUGAACGGAAG
B39: Eterna 7741560 (Exclusion - FMN A) (ssRNA)
RNA: UCCUAGGCUCGAAAGAGCCUAGGAUUGACUCAGGAUAUCCGGAAACGGAGAAGGGAGUCACUAGUGAUGUUAGGGAUUCCCUAUU
B40: Eterna 6122649 (Exclusion NG 2) (ssRNA)
RNA: UUAUCUUGUCAAGGAUAUGUUGUAUUGAUCUGAAAACAUGAGGAUCACCCAUGUAUACGGUGGGAACAGAAGGUGAAUGUAGAA
B41: Eterna 11543 (Sensor v3, turn-off variant 1) (ssRNA)
RNA: AAAGAAGAGAGAAAAUAACACAUGAGGAUCACCCAUGUGAGAAGUUGAGGGUGAUACAGGCUUUAUGCUCGUCUUAU
B42: Eterna 6455789 (Same State NG 2) (ssRNA)
RNA: UUGGACGUCGUAGGAUAUGUAGGAUAUUCCUACAUGAGGAUCACCCAUGUUGACAUGGAAGAAGGACAGAAGUACGAUGUCCAU
B43: Eterna 6416899 (Inverted Same State NG 1) (ssRNA)
RNA: CACAAAUGGCAGAAGGGACGGACGAUAGUGUAGUCAGGAUAUGCAAAUAGGUAUGGACAUGAGGAUCACCCAUGUCCGUCCUUU

The binders below were run against MS2 coat protein, dlFG mutant (Escherichia phage MS2, UniProt P03612, del68-81insG) (assay: 4 mM Mg2+; no ligand; RNA-MaP array; 100 mM Tris-HCl pH 7.5, 80 mM KCl, 4 mM MgCl2, 0.1 mg/mL BSA, 1 mM DTT, 0.01 mg/mL yeast tRNA, 0.01% Tween-20; protein 1.5 nM to 3 uM; 37 C (Table S3)). Details: chain copies: 2; label: tethered by stalled RNA polymerase.

Q: How did the Kd turn out when B1 was run?
A: 118 nM

Q: With B2 as the binder, how does the Kd read?
A: 1130 nM

Q: B3 was tested. Which Kd did it give?
A: 107 nM

Q: For B4, which Kd is on record?
A: 28.4 nM

Q: For B5, which Kd is on record?
A: 36.1 nM

Q: Which Kd does the source give for B6 here?
A: 23.6 nM

Q: Which Kd does the source give for B7 here?
A: 21.3 nM

Q: B8 was tested. Which Kd did it give?
A: 504 nM

Q: How did the Kd turn out when B9 was run?
A: > 3000 nM

Q: With B10 as the binder, how does the Kd read?
A: 28.7 nM

Q: B11 was tested. Which Kd did it give?
A: > 3000 nM

Q: With B12 as the binder, how does the Kd read?
A: > 3000 nM

Q: With B13 as the binder, how does the Kd read?
A: > 3000 nM

Q: How did the Kd turn out when B14 was run?
A: 35.4 nM

Q: For B15, which Kd is on record?
A: > 3000 nM

Q: B16 was tested. Which Kd did it give?
A: 33.3 nM

Q: Which Kd does the source give for B17 here?
A: 14.9 nM

Q: With B18 as the binder, how does the Kd read?
A: 27.8 nM

Q: For B19, which Kd is on record?
A: > 3000 nM

Q: B20 was tested. Which Kd did it give?
A: 43 nM

Q: Which Kd does the source give for B21 here?
A: 1200 nM

Q: How did the Kd turn out when B22 was run?
A: > 3000 nM

Q: Which Kd does the source give for B23 here?
A: 121 nM

Q: B24 was tested. Which Kd did it give?
A: > 3000 nM

Q: How did the Kd turn out when B25 was run?
A: 19.3 nM

Q: How did the Kd turn out when B26 was run?
A: > 3000 nM

Q: For B27, which Kd is on record?
A: 28.4 nM

Q: Which Kd does the source give for B28 here?
A: 63.8 nM

Q: How did the Kd turn out when B29 was run?
A: > 3000 nM

Q: With B30 as the binder, how does the Kd read?
A: > 3000 nM

Q: For B31, which Kd is on record?
A: 271 nM

Q: B32 was tested. Which Kd did it give?
A: > 3000 nM

Q: B33 was tested. Which Kd did it give?
A: 255 nM

Q: B34 was tested. Which Kd did it give?
A: > 3000 nM

Q: With B35 as the binder, how does the Kd read?
A: 530 nM

Q: For B36, which Kd is on record?
A: 162 nM

Q: B37 was tested. Which Kd did it give?
A: 133 nM

Q: B38 was tested. Which Kd did it give?
A: 571 nM

Q: For B39, which Kd is on record?
A: > 3000 nM

Q: How did the Kd turn out when B40 was run?
A: 808 nM

Q: Which Kd does the source give for B41 here?
A: 203 nM

Q: How did the Kd turn out when B42 was run?
A: 127 nM

Q: How did the Kd turn out when B43 was run?
A: 15.2 nM

Reference: PMC9170038, “Crowdsourced RNA design discovers diverse, reversible, efficient, self-contained molecular switches”
